The experiment deals with T1, 6His-Scy (recombinant, from E. coli).
T1 chain: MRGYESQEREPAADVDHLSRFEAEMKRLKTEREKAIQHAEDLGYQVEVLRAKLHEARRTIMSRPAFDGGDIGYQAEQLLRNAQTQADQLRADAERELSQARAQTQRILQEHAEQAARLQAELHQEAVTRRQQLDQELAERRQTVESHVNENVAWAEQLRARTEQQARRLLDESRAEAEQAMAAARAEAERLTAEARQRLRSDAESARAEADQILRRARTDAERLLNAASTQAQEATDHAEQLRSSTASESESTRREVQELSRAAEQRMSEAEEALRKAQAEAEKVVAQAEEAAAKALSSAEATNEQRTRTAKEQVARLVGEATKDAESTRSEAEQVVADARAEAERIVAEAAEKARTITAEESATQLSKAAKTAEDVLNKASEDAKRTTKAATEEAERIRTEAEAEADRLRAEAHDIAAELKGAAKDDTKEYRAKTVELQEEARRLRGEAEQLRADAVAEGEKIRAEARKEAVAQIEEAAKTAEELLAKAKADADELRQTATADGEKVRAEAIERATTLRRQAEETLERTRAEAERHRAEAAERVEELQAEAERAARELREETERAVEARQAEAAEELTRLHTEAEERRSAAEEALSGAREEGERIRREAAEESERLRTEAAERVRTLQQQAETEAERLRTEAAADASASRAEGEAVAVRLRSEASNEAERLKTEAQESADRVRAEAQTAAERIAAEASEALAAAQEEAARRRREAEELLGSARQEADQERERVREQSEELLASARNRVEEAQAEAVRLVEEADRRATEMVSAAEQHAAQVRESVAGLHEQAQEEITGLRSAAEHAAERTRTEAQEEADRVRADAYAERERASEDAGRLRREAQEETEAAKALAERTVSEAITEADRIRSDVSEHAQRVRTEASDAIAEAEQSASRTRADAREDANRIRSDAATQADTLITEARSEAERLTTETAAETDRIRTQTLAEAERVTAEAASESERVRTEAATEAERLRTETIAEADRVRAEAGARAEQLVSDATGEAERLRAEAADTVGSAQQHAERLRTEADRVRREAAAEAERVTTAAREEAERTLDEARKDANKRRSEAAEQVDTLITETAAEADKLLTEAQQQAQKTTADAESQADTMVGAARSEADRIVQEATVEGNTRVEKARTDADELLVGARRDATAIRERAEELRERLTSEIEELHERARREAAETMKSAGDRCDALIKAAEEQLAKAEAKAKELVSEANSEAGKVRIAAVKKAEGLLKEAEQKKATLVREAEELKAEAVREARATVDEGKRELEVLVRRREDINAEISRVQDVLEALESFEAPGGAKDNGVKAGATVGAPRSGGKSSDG
Description: SPR. The note with it: chain shown with the change, ParA or ParAScy- (500 RU) immobilized on CM5 in the presence of ATP, read off a plot.

B1: ParA (purified recombinant wild type) S249Y; E250V (protein)
chain: MDDTPIGRAAQLAVEALGRAGEGLPRPEQTRVMVVANQKGGVGKTTTTVNLAASLALHGARVLVVDLDPQGNASTALGIDHHADVPSIYDVLVESRPLSEVVQPVPDVEGLFCAPATIDLAGAEIELVSLVARESRLQRAITAYEQPLDYILIDCPPSLGLLTVNALVAGQEVLIPIQCEYYALEGLGQLLRNVDLVRGHLNPTLHVSTILLTMYDGRTRLASQVADEVRSHFGEEVLRTSIPRSVRIYVAPSYGQTVLTYDPGSSGALSYLEAAREIALKGVGVTYDATHAHLGAQNDPSMVEGTQ
Take B1: the response runs as follows: (600 nM 6His-Scy, parent: est. 13) 4.5 RU; (1000 nM 6His-Scy, parent: est. 27) 12 RU; (2000 nM 6His-Scy, parent: est. 43) 17 RU; (4000 nM 6His-Scy, parent: est. 53) 25 RU.

Values taken from PMC3718342.
